In the supplement of paper PMC7877785:
± gives the uncertainty stated by the source.

Test: self-splicing fitness, log relative to wild type (ln ratio); higher = more splicing; Tetrahymena group I intron in knt gene, E. coli kanamycin selection, DiMSum; sequences stand for … in CUCUCU…GGAGGGAAAAGUUAUCAGGCAUGCACCUGGUAGCUAGUCUUUAAACCAAUAGAUUGCAUCGGUUUAAAAGGCAAGACCGUCAAAUUGCGGGAAAGGGGUCAACAGCCGUUCAGUACCAAGUCUCAGGGGAAACUUUGAGAUGGCCUUGCAAAGGGUAUGGUAAUAAGCUGACGGACAUGGUCCUAACCACGCAGCCAAGUCCUAAGUCAACAGAUCUUCUGUUGAUAUGGAUGCAGUUCACAGACUAAAUGUCGGUCGGGGAAGAUGUAUUCUUCUCAUAAGAUAUAGUCGGACCUCUCCUUAAUGGGAGCUAGCGGAUGAAGUGAUGCAACACUGGAGCCGCUGGGAACUAAUUUGUAUGCGAAAGUAUAUUGAUUAGUUUUGGAGUACUCGUGGUCG
Outline: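 Pooled colonies went to amplicon sequencing on an Illumina HiSeq 2500 after six replicate transformations. The plates were LB agar with 100 μg/mL carbenicillin, 50 μM IPTG and 0.2% rhamnose, with or without 25 μg/mL kanamycin, incubated overnight at 37°C or 30°C. The E. coli BL21(DE3) library had all eight P1ex-region intron nucleotides randomised, the intron placed in the knt kanamycin-resistance gene on pET-22b(+). DiMSum fitness is the error-weighted combination of replicate fold changes, kanamycin against none, normalised to wild type.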

Sequence | self-splicing fitness (ln) (30 °C) | self-splicing fitness (ln) (37 °C)
GUCGAGCAAUAUUACGGGAA | -2.39 ± 0.34 | -1.63 ± 0.37
GUCGAGCAAUAUUACGGGCG | -2.88 ± 0.11 | -1.36 ± 0.12
GUCGAGCAAUAUUACGGGGC | – | -1.57 ± 0.28
GUCGAGCAAUAUUACGUGGU | -3.5 ± 0.19 | -2.8 ± 0.19
GUCGAGCAAUAUUACGUUUC | -2.08 ± 0.21 | -1.88 ± 0.2
GUCUAGCAAUAUUACGAAGA | -3.16 ± 0.24 | -2.24 ± 0.2
GUCUAGCAAUAUUACGAAGC | -1.58 ± 0.18 | -0.814 ± 0.18
GUCUAGCAAUAUUACGAAUU | -1.29 ± 0.077 | -0.287 ± 0.098
GUCUAGCAAUAUUACGAGAU | -3.31 ± 0.26 | -2.32 ± 0.22
GUCUAGCAAUAUUACGAGUC | -1.93 ± 0.11 | -1.88 ± 0.093
GUCUAGCAAUAUUACGCAAC | -1.33 ± 0.087 | -0.643 ± 0.095
GUCUAGCAAUAUUACGCCGG | -3.17 ± 0.33 | -2.31 ± 0.33
GUCUAGCAAUAUUACGCGGC | – | -2.87 ± 0.4
GUCUAGCAAUAUUACGCUAU | -1.54 ± 0.11 | -0.228 ± 0.1
GUCUAGCAAUAUUACGCUUC | -1.25 ± 0.11 | -0.47 ± 0.12
GUCUAGCAAUAUUACGGAAA | -0.658 ± 0.12 | -0.44 ± 0.12
GUCUAGCAAUAUUACGGGCA | -3.1 ± 0.44 | -1.43 ± 0.21
GUCUAGCAAUAUUACGGGGG | -2.58 ± 0.33 | -1.46 ± 0.17
GUCUAGCAAUAUUACGGUUA | -0.904 ± 0.15 | -0.443 ± 0.13
GUCUAGCAAUAUUACGUGAA | -0.302 ± 0.1 | 0.449 ± 0.097
GUCUAGCAAUAUUACGUGCC | -1.54 ± 0.24 | -0.468 ± 0.28
